Source: US20230025280A1, “PH RESPONSIVE COMPOSITIONS, FORMULATIONS, AND METHODS OF IMAGING A TUMOR” (ONCONANO MEDICINE, INC, priority 2019, published 2023)
“And” between values parts separate entries of the source, which are not always exact repeats. Equal entries are not always repeated. Marks after values point to notes of the source that are not given here.

Assay: Phase 1 (1a/1b) pharmacokinetics: plasma concentrations after single IV dose (validated direct fluorescence reader assay), noncompartmental analysis
Assay type: in vivo, human
Text: Phase 1 is a single-Principal Investigator, non-randomized, open-label, single-arm, cross-sectional study to evaluate the safety, PK profile, and imaging feasibility of Compound 1 in patients with solid cancers who require surgical excision. The main purpose of this study was to investigate the safety, PK, and feasibility of Compound 1 as an intra-operative optical imaging agent to detect tumors and metastatic lymph nodes in solid cancers. The study was intended to investigate the optimal dose range of Compound 1 for an adequate TBR and CNR of fluorescence obtained intraoperatively at 24 (±8) hours post dosing and with ex vivo specimens using ICG compatible cameras and imaging devices.
Phase 1 enrolled 30 patients with solid cancers (HNSCC, breast cancer, esophageal cancer, or colorectal cancer) who have a biopsy-confirmed diagnosis of respective tumor types and are scheduled to undergo surgical resection of the tumor. The study design included a standard 3+3 design for the dose-escalation portion (Phase 1a; N=18 maximum) followed by a dose-expansion portion (Phase 1b; N=15). All patients received a single I.V. dose of Compound 1, followed by routine surgery approximately 24 hours after infusion of Compound 1.
Phase 1a was a dose-finding study performed in 5 cohorts of 3 patients each. The dose levels evaluated were […], and 1.2 mg/kg, in this sequence. Inter-cohort dose escalation took place after the last patient in the previous cohort completed the Day 10 safety assessment. Safety, PK, and imaging feasibility were evaluated in both the Phase 1a and 1b portions of the study. Patient safety is assessed during the study and for up to 10 days post-dose.
Study design: Single Compound 1 IV dose was administered as a 1-5 minute IV infusion to patients in five cohorts (0.1, 0.3, 0.5, 0.8, and 1.2 mg/kg) with three patients per cohort in Phase 1a and 15 patients at a dose of 1.2 mg/kg in Phase 1b. Patient demographic information including tumor types is presented in Table 4 and 5 for Phase 1a and Table 5 for Phase 1b. Intertek Pharmaceutical Services (San Diego, Calif.) determined Compound 1 plasma concentrations using a validated direct fluorescence reader assay. Pacific BioDevelopment (Davis, Calif.) performed the PK analysis.
Sample collection: Blood samples were collected prior to infusion and at 10 minutes and 0.5, 1, 3, 8, 24, 48, 72, and 240 hours after infusion.
Analysis: Plasma concentration versus time profiles were generated for each patient. Pharmacokinetic parameters were estimated using Phoenix WinNonlin (version 8.0). According to SOP, concentrations reported as BQL were set to 0 except for the 0.5 h sample for subject #ON1102, which was set to LLOQ/2 ([…] value used in parameter calculations) and the 24 and 48 h samples.
If the coefficient of determination for the terminal slope estimation was less than 0.8, T1/2 was not reported (NR). AUC extrapolated to infinity is not reported for any data set because in all cases the % extrapolated AUC was greater than 20% and thus the AUCinf estimate would not be reliable. The concentration at 10 minutes, the first time point measured (C10m), was also reported for each patient.
The area under the plasma concentration versus time curves from dosing to the last time point with a measurable concentration (AUClast) was estimated by the linear trapezoid method. The last three or more time points were used to estimate the elimination rate constant (λz) which was used to estimate the terminal-phase half-life (T1/2) and AUC from zero to infinity (AUCINF) from the following equations: […]

[1] = 1.2 mg/kg, HNSCC, individual subjects
[2] = Phase 1a, 0.3 mg/kg single IV, individual subject
[3] = Phase 1a, 0.3 mg/kg single IV, mean
[4] = Phase 1a, 0.3 mg/kg single IV, median
[5] = Phase 1a, 0.5 mg/kg single IV, individual subject

PEO90-140-b-P(DBA60-150-r-ICG0-3-r-AMA0-3) [Compound 1]
Cmax (1.2 mg/kg, HNSCC, Mean, N 7): 33600 ng/mL | Tmax (1.2 mg/kg, HNSCC, Mean, N 7): 1.14 h | T1/2 (1.2 mg/kg, HNSCC, Median, N 5): 42.6 h | AUC0-24 hr (1.2 mg/kg, HNSCC, Median, N 7): 565 µg·h/mL | AUCall (1.2 mg/kg, HNSCC, Median, N 7): 1160 µg·h/mL | AUClast (1.2 mg/kg, HNSCC, Median, N 7): 970 µg·h/mL | C10 m (1.2 mg/kg, HNSCC, Median, N 7): 30.3 µg/mL | Cmax (1.2 mg/kg, HNSCC, Median, N 7): 32400 ng/mL | Tmax (1.2 mg/kg, HNSCC, Median, N 7): 0.500 h | AUC0-24 hr [1]: 348 µg·h/mL and 563 µg·h/mL and 565 µg·h/mL and 520 µg·h/mL and 625 µg·h/mL and 730 µg·h/mL and 740 µg·h/mL | AUCall [1]: 348 µg·h/mL and 1160 µg·h/mL and 1100 µg·h/mL and 747 µg·h/mL and 2690 µg·h/mL and 2550 µg·h/mL and 2740 µg·h/mL | AUClast [1]: 184 µg·h/mL and 970 µg·h/mL and 957 µg·h/mL and 520 µg·h/mL and 1430 µg·h/mL and 1480 µg·h/mL and 1580 µg·h/mL | C10 m [1]: 28.0 µg/mL and 34.1 µg/mL and 28.5 µg/mL and 27.5 µg/mL and 30.3 µg/mL and 47.6 µg/mL and 31.3 µg/mL | Cmax [1]: 28000 ng/mL and 34100 ng/mL and 29900 ng/mL and 29200 ng/mL and 32400 ng/mL and 47600 ng/mL and 34300 ng/mL | T1/2 [1]: 32.5 h and 46.5 h and 42.6 h and 38.4 h and 46.8 h | Tmax [1]: 0.170 h and 1.00 h and 0.500 h and 3.00 h | AUC0-24h in relation to dose (Phase 1a and 1b, up to 1.2 mg/kg): appears to be dose proportional | Exposure in relation to dose (Phase 1a and Phase 1b combined): dose proportional | Measurability in subject plasma samples (Phase 1a, 0.1 mg/kg): not measurable | C10 m (Phase 1a, 0.1 mg/kg single IV, individual subject): 0.00 µg/mL | C10 m (Phase 1a, 0.1 mg/kg single IV, mean): 0.00 µg/mL | C10 m (Phase 1a, 0.1 mg/kg single IV, median): 0.00 µg/mL | Plasma Conc (Phase 1a, 0.100 mg/kg, 0.170 hr, individual subject): BQL (BQL (<10 μg/mL), set = 0 for PK analysis) | Plasma Conc (Phase 1a, 0.100 mg/kg, 0.170 hr, mean): 0.00 µg/mL | Plasma Conc (Phase 1a, 0.100 mg/kg, 0.500 hr, individual subject): BQL (BQL (<10 μg/mL), set = 0 for PK analysis) | Plasma Conc (Phase 1a, 0.100 mg/kg, 0.500 hr, mean): 0.00 µg/mL | Plasma Conc (Phase 1a, 0.100 mg/kg, 1.00 hr, individual subject): BQL (BQL (<10 μg/mL), set = 0 for PK analysis) | Plasma Conc (Phase 1a, 0.100 mg/kg, 1.00 hr, mean): 0.00 µg/mL | Plasma Conc (Phase 1a, 0.100 mg/kg, 3.00 hr, individual subject): BQL (BQL (<10 μg/mL), set = 0 for PK analysis) | Plasma Conc (Phase 1a, 0.100 mg/kg, 3.00 hr, mean): 0.00 µg/mL | Plasma Conc (Phase 1a, 0.100 mg/kg, 8.00 hr, individual subject): BQL (BQL (<10 μg/mL), set = 0 for PK analysis) | Plasma Conc (Phase 1a, 0.100 mg/kg, 8.00 hr, mean): 0.00 µg/mL | Plasma Conc (Phase 1a, 0.100 mg/kg, 24.0 hr, individual subject): BQL (BQL (<10 μg/mL), set = 0 for PK analysis) | Plasma Conc (Phase 1a, 0.100 mg/kg, 24.0 hr, mean): 0.00 µg/mL | Plasma Conc (Phase 1a, 0.100 mg/kg, 48.0 hr, individual subject): BQL (BQL (<10 μg/mL), set = 0 for PK analysis) | Plasma Conc (Phase 1a, 0.100 mg/kg, 48.0 hr, mean): 0.00 µg/mL | Plasma Conc (Phase 1a, 0.100 mg/kg, 72.0 hr, individual subject): BQL (BQL (<10 μg/mL), set = 0 for PK analysis) | Plasma Conc (Phase 1a, 0.100 mg/kg, 72.0 hr, mean): 0.00 µg/mL | Plasma Conc (Phase 1a, 0.100 mg/kg, 240 hr, individual subject): BQL (BQL (<10 μg/mL), set = 0 for PK analysis) | Plasma Conc (Phase 1a, 0.100 mg/kg, 240 hr, mean): 0.00 µg/mL | Mean AUC0-24h (Phase 1a, 0.3 mg/kg): 197 µg·h/mL | Mean C10 (Phase 1a, 0.3 mg/kg): 12 µg/mL | AUC0-24 hr [2]: 292 µg·h/mL and 4.68 µg·h/mL and 296 µg·h/mL | AUCall [2]: 437 hr*μg/mL and 4.68 hr*μg/mL and 2040^1 hr*μg/mL | AUClast [2]: 292 µg·h/mL and 3.43 µg·h/mL and 902 µg·h/mL | C10 m [2]: 10.7 µg/mL and 10.4 µg/mL and 14.8 µg/mL | Cmax [2]: 12500 ng/mL and 10400 ng/mL and 16500 ng/mL | Tmax [2]: 8.00 h and 0.170 h and 3.00 h | AUC0-24 hr [3]: 197 µg·h/mL | AUCall [3]: 826 µg·h/mL | AUClast [3]: 399 µg·h/mL | C10 m [3]: 12.0 µg/mL | Cmax [3]: 13100 ng/mL | Tmax [3]: 3.72 h | AUC0-24 hr [4]: 292 µg·h/mL | AUCall [4]: 437 µg·h/mL | AUClast [4]: 292 µg·h/mL | C10 m [4]: 10.7 µg/mL | Cmax [4]: 12500 ng/mL | Tmax [4]: 3.00 h | Plasma Conc (Phase 1a, 0.300 mg/kg, 0.170 hr, individual subject): 10.7 µg/mL and 10.4 µg/mL and 14.8 µg/mL | Plasma Conc (Phase 1a, 0.300 mg/kg, 0.170 hr, mean): 12.0 µg/mL | Plasma Conc (Phase 1a, 0.300 mg/kg, 0.500 hr, individual subject): 5.00^b μg/mL and 15.1 μg/mL | Plasma Conc (Phase 1a, 0.300 mg/kg, 0.500 hr, mean): 10.1 µg/mL | Plasma Conc (Phase 1a, 0.300 mg/kg, 1.00 hr, individual subject): 11.4 μg/mL and BQL (BQL (<10 μg/mL), set = 0 for PK analysis) and 12.9 μg/mL | Plasma Conc (Phase 1a, 0.300 mg/kg, 1.00 hr, mean): 8.10 µg/mL | Plasma Conc (Phase 1a, 0.300 mg/kg, 3.00 hr, individual subject): 12.0 μg/mL and BQL (BQL (<10 μg/mL), set = 0 for PK analysis) and 16.5 μg/mL | Plasma Conc (Phase 1a, 0.300 mg/kg, 3.00 hr, mean): 9.50 µg/mL | Plasma Conc (Phase 1a, 0.300 mg/kg, 8.00 hr, individual subject): 12.5 μg/mL and BQL (BQL (<10 μg/mL), set = 0 for PK analysis) and 11.2 μg/mL | Plasma Conc (Phase 1a, 0.300 mg/kg, 8.00 hr, mean): 7.90 µg/mL | Plasma Conc (Phase 1a, 0.300 mg/kg, 24.0 hr, individual subject): 12.1 μg/mL and BQL (BQL (<10 μg/mL), set = 0 for PK analysis) (2×) | Plasma Conc (Phase 1a, 0.300 mg/kg, 24.0 hr, mean): 6.05 µg/mL | Plasma Conc (Phase 1a, 0.300 mg/kg, 48.0 hr, individual subject): BQL (BQL (<10 μg/mL), set = 0 for PK analysis) | Plasma Conc (Phase 1a, 0.300 mg/kg, 48.0 hr, mean): 0.00 µg/mL | Plasma Conc (Phase 1a, 0.300 mg/kg, 72.0 hr, individual subject): BQL (BQL (<10 μg/mL), set = 0 for PK analysis) (2×) and 13.5 μg/mL | Plasma Conc (Phase 1a, 0.300 mg/kg, 72.0 hr, mean): 4.50 µg/mL | Plasma Conc (Phase 1a, 0.300 mg/kg, 240 hr, individual subject): BQL (BQL (<10 μg/mL), set = 0 for PK analysis) | Plasma Conc (Phase 1a, 0.300 mg/kg, 240 hr, mean): 0.00 µg/mL | Mean AUC0-24h (Phase 1a, 0.5 mg/kg): 289 µg·h/mL | Mean C10 (Phase 1a, 0.5 mg/kg): 17.3 µg/mL | AUC0-24 hr [5]: 314 µg·h/mL and 340 µg·h/mL and 213 µg·h/mL | AUCall [5]: 314 µg·h/mL and 1980 µg·h/mL and 213 µg·h/mL | AUClast [5]: 160 µg·h/mL and 969 µg·h/mL and 101 µg·h/mL | C10 m [5]: 22.0 µg/mL and 16.2 µg/mL and 13.6 µg/mL
